Results: paper PMC2606963

Legend:
[1] = molecular target: dynamic microtubules grown in buffer from purified (tyrosinated) tubulin (pig) (UniProt P02550); assay: single-molecule TIRF microscopy on dynamic microtubules
[2] = molecular target: dynamic microtubules grown in buffer from detyrosinated tubulin (tubulinΔY) (pig) (UniProt P02550); assay: TIRF microscopy on dynamic microtubules

Row | Substance | mean single molecule dwell time at growing microtubule ends [1] | percent reduction of end binding against microtubules of tyrosinated tubulin [2] | mean dwell time at growing microtubule ends [1]
1 | EB1-GFP (full-length X. laevis EB1 fused to GFP) (natural protein) | 0.05 s | – | –
2 | H2-GFP (GFP-tagged H2 fragment of CLIP-170) (domain or fragment) | – | 87% | 0.25 s
